Kd, koff and kon data for six molecules are collected here from US20240024520A1 (UCB, published 2024).

For this assay, the target named is T1, human complement component C5 (human, UniProt P01031 19-673; P01031 678-1676).
T1 construct: mature; Mature C5 is a disulphide-linked beta and alpha chain cut from one precursor; Terbium-labelled in the FRET assays, biotinylated in part of the phage ELISA; also called human C5; C5-Tb
T1 sequence (P01031 19-673 limits assumed, chain 1 of 2): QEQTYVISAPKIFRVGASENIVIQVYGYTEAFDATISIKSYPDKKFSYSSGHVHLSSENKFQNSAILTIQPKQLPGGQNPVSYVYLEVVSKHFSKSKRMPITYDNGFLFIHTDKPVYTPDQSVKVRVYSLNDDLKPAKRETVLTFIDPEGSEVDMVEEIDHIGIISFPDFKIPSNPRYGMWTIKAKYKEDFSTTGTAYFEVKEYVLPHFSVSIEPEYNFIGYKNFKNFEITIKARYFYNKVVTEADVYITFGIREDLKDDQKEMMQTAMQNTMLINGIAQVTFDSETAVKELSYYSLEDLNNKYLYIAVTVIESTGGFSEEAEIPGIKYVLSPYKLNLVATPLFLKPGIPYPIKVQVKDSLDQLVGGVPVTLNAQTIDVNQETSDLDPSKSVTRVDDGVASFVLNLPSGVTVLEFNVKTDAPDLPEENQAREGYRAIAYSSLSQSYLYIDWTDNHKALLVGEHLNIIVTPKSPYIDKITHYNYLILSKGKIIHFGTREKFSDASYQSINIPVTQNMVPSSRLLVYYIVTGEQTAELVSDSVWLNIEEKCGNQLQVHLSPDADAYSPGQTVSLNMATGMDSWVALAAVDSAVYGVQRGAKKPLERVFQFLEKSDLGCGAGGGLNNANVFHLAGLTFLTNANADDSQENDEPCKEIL
T1 sequence (P01031 678-1676 limits assumed, chain 2 of 2): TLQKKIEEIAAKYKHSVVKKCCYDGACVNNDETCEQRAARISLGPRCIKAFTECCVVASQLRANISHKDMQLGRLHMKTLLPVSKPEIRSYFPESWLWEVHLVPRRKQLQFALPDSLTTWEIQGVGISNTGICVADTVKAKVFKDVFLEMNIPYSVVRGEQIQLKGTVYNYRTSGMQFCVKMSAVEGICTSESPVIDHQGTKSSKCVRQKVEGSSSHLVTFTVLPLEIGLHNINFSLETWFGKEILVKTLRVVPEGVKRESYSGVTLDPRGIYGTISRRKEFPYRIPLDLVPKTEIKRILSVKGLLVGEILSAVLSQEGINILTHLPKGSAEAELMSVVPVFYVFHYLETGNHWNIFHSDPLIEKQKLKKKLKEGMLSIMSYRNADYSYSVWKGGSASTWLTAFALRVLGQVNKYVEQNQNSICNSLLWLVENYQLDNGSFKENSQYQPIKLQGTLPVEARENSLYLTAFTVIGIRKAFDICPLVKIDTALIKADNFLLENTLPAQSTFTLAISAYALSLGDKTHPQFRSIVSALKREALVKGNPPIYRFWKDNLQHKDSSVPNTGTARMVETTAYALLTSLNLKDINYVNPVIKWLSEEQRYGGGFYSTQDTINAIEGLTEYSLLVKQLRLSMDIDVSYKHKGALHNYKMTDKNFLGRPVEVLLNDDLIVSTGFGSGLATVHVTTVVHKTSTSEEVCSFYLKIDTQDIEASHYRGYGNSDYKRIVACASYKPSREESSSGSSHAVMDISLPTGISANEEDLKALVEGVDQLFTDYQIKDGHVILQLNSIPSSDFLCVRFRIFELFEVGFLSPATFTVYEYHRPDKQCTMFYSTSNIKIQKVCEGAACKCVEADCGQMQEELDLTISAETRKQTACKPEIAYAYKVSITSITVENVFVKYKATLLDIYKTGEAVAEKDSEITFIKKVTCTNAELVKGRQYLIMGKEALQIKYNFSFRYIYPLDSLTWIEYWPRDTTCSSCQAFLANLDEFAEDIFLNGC
Nature of the assay: SPR multi-cycle kinetics, human C5 immobilised, mean of n=3.
TCPEGWSECGVAIYGYECGRWGCGHALNSGPNISPYVST [K92chemFE F26A]: the Kd was determined as 18.8 nM, the koff was determined as 0.00328 s⁻¹ and the kon is 184000 M⁻¹ s⁻¹.
The corresponding values for TCPEGWSECGVAIYGYECGRAGCGHFLNSGPNISPYVST [K92chemFE W21A] are 497 nM, 0.00848 s⁻¹ and 17400 M⁻¹ s⁻¹.
TCPEGWSECGVAIYGAECGRWGCGHFLNSGPNISPYVST [K92chemFE Y16A]: the Kd came out at 221 nM and the koff was 0.786 s⁻¹.
In turn, TCPEGWSECGVAIAGYECGRWGCGHFLNSGPNISPYVST [K92chemFE Y14A] came in with a Kd of 3.62 nM, a dissociation rate constant (koff) of 0.0001 s⁻¹ and a kon of 27200 M⁻¹ s⁻¹.
Taken in the same sequence, the figures for TCPEGASECGVAIYGYECGRWGCGHFLNSGPNISPYVST [K92chemFE W6A] were 219 nM, 0.00157 s⁻¹ and 7980 M⁻¹ s⁻¹.
The corresponding values for TCPEGWSECGVAIYGYECGRHGCGHFLNSGPNISPYVST [K92chemFE W21H] are 1.48 nM, 0.000612 s⁻¹ and 425000 M⁻¹ s⁻¹.
